Here are results for 38 sequences from the supplement of paper PMC7877785.

± gives the uncertainty stated by the source.

This data set in a line: self-splicing fitness, log relative to wild type (ln ratio); higher = more splicing; Tetrahymena group I intron in knt gene, E. coli kanamycin selection, DiMSum; sequences stand for … in CUCUCU…GGAGGGAAAAGUUAUCAGGCAUGCACCUGGUAGCUAGUCUUUAAACCAAUAGAUUGCAUCGGUUUAAAAGGCAAGACCGUCAAAUUGCGGGAAAGGGGUCAACAGCCGUUCAGUACCAAGUCUCAGGGGAAACUUUGAGAUGGCCUUGCAAAGGGUAUGGUAAUAAGCUGACGGACAUGGUCCUAACCACGCAGCCAAGUCCUAAGUCAACAGAUCUUCUGUUGAUAUGGAUGCAGUUCACAGACUAAAUGUCGGUCGGGGAAGAUGUAUUCUUCUCAUAAGAUAUAGUCGGACCUCUCCUUAAUGGGAGCUAGCGGAUGAAGUGAUGCAACACUGGAGCCGCUGGGAACUAAUUUGUAUGCGAAAGUAUAUUGAUUAGUUUUGGAGUACUCGUGGUCG
The method in brief:
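Pooled colonies went to amplicon sequencing on an Illumina HiSeq 2500 after six replicate transformations. The plates were LB agar with 100 μg/mL carbenicillin, 50 μM IPTG and 0.2% rhamnose, with or without 25 μg/mL kanamycin, incubated overnight at 37°C or 30°C. The E. coli BL21(DE3) library had all eight P1ex-region intron nucleotides randomised, the intron placed in the knt kanamycin-resistance gene on pET-22b(+). DiMSum fitness is the error-weighted combination of replicate fold changes, kanamycin against none, normalised to wild type.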

On to CGCAAGCAAUAUUACGCGUG, for which the “self-splicing fitness (ln)” value runs as follows: (30 °C) -3.08 ± 0.12; (37 °C) -1.99 ± 0.13. Taken in the same sequence, the figures for CACCAGCAAUAUUACGCUGG were -5.21 ± 0.25 and -2.41 ± 0.16.

Regarding UAUUAGCAAUAUUACGUCGG, the “self-splicing fitness (ln)” value by setting is: (30 °C) -1.21 ± 0.12; (37 °C) -0.795 ± 0.15.

Turning to UAUUAGCAAUAUUACGAGAC, the “self-splicing fitness (ln)” value (30 °C) is -2.57 ± 0.47. With UGCAAGCAAUAUUACGCCCA, the “self-splicing fitness (ln)” value is -0.543 ± 0.14 (30 °C) and 0.796 ± 0.23 (37 °C). Take ACUGAGCAAUAUUACGAGCU: the “self-splicing fitness (ln)” value (37 °C) was -1.02 ± 0.32.

Regarding AGCCAGCAAUAUUACGAGAA, the “self-splicing fitness (ln)” value reads like this: (30 °C) -2.99 ± 0.36; (37 °C) -1.42 ± 0.3. The corresponding values for CGUCAGCAAUAUUACGUGCG are -4.56 ± 0.31 and -2.21 ± 0.19. Taken in the same sequence, the figures for CCGUAGCAAUAUUACGGAGU were -2.68 ± 0.16 and -2.33 ± 0.22. The corresponding values for UAAAAGCAAUAUUACGGUCU are -1.83 ± 0.076 and -0.678 ± 0.079. Regarding GUGGAGCAAUAUUACGAAUC, the “self-splicing fitness (ln)” value is, setting by setting: (30 °C) -3.4 ± 0.24; (37 °C) -1.43 ± 0.26. Taken in the same sequence, the figures for AGCGAGCAAUAUUACGGCGU were -0.762 ± 0.11 and -0.808 ± 0.093. The corresponding values for GUCCAGCAAUAUUACGCGAC are -3.04 ± 0.19 and -2.86 ± 0.21.

Turning to GGCUAGCAAUAUUACGCACA, the “self-splicing fitness (ln)” value (30 °C) was -0.263 ± 0.12 and the “self-splicing fitness (ln)” value (37 °C) turned out to be 0.1 ± 0.16. As for GGAAAGCAAUAUUACGAUGG, the “self-splicing fitness (ln)” value is, setting by setting: (30 °C) -3.14 ± 0.22; (37 °C) -2.39 ± 0.21. Taken in the same sequence, the figures for UCCUAGCAAUAUUACGCCAG were -3.13 ± 0.26 and -2.68 ± 0.26. The corresponding values for GACGAGCAAUAUUACGUCCA are -2.11 ± 0.32 and -2.68 ± 0.31. Take CCUCAGCAAUAUUACGGUUG: the “self-splicing fitness (ln)” value reads like this: (30 °C) -2.28 ± 0.085; (37 °C) -0.828 ± 0.094.

For UGUAAGCAAUAUUACGCUUG, the “self-splicing fitness (ln)” value was -4.2 ± 0.42 (30 °C) and -1.99 ± 0.21 (37 °C). The corresponding values for ACGGAGCAAUAUUACGAUAU are -2.48 ± 0.21 and -2.12 ± 0.23.

As to CGGCAGCAAUAUUACGAUCU, the “self-splicing fitness (ln)” value reads like this: (30 °C) -0.274 ± 0.084; (37 °C) 0.148 ± 0.11. UUAGAGCAAUAUUACGGCUG: the “self-splicing fitness (ln)” value is, setting by setting: (30 °C) -0.433 ± 0.12; (37 °C) 0.354 ± 0.17. Consider UCGAAGCAAUAUUACGCGCA, for which the “self-splicing fitness (ln)” value reads like this: (30 °C) 0.425 ± 0.26; (37 °C) -0.635 ± 0.21. As for UUAAAGCAAUAUUACGCGCG, the “self-splicing fitness (ln)” value (30 °C) was -0.058 ± 0.12 and the “self-splicing fitness (ln)” value (37 °C) was 0.00297 ± 0.16. The corresponding values for AGUAAGCAAUAUUACGAAGU are -1.75 ± 0.24 and -0.18 ± 0.27.

On to UAGAAGCAAUAUUACGAUGC, for which the “self-splicing fitness (ln)” value is -1.9 ± 0.24 (30 °C) and -0.852 ± 0.2 (37 °C).

Consider UUAGAGCAAUAUUACGUGAA, for which the “self-splicing fitness (ln)” value by setting is: (30 °C) -2.16 ± 0.12; (37 °C) -0.588 ± 0.13. The corresponding values for AACAAGCAAUAUUACGUGGU are -3.38 ± 0.12 and -1.57 ± 0.1.

As to GGUAAGCAAUAUUACGAUGA, the “self-splicing fitness (ln)” value is, setting by setting: (30 °C) -1.83 ± 0.26; (37 °C) -0.16 ± 0.2.

Consider CCGCAGCAAUAUUACGAUCU, for which the “self-splicing fitness (ln)” value (30 °C) is -3.81 ± 0.29 and the “self-splicing fitness (ln)” value (37 °C) was -2.35 ± 0.26.

As to GAGGAGCAAUAUUACGCUGC, under “30 °C”, the “self-splicing fitness (ln)” value is -4.13 ± 0.38. Take CCAGAGCAAUAUUACGUGGC: the “self-splicing fitness (ln)” value was -1.95 ± 0.18 (30 °C) and -3.77 ± 0.39 (37 °C). Taken in the same sequence, the figures for ACACAGCAAUAUUACGGGGC were -2.8 ± 0.16 and -3.16 ± 0.19. Turning to GGUCAGCAAUAUUACGAAAG, the “self-splicing fitness (ln)” value (30 °C) was -1.78 ± 0.084 and the “self-splicing fitness (ln)” value (37 °C) was -1.22 ± 0.12. Take AUUUAGCAAUAUUACGUACA: the “self-splicing fitness (ln)” value is -1.7 ± 0.15 (30 °C) and -1.39 ± 0.13 (37 °C). CAAUAGCAAUAUUACGUCCU: the “self-splicing fitness (ln)” value reads like this: (30 °C) -3.78 ± 0.42; (37 °C) -2.4 ± 0.28.

Regarding GGAAAGCAAUAUUACGACGC, the “self-splicing fitness (ln)” value runs as follows: (30 °C) -0.197 ± 0.1; (37 °C) 0.595 ± 0.16. Taken in the same sequence, the figures for CAAUAGCAAUAUUACGUUCG were -0.45 ± 0.057 and 0.556 ± 0.081.
